Article PMC2248580

Target: human activated blood coagulation factor X (FXa) (human)
Test: SPR; […]; 37°C; HBS (10 mM Hepes, 150 mM NaCl, 5 mM CaCl2, 0.005% P20, pH 7.4); Langmuir fit; […]

For “Myotoxin II from Bothrops asper venom (from UniProt P24605 17-137) (natural protein)”, the Kd was 1.8 nM, the koff was 0.0178 s⁻¹ and the kon was 1.04e+07 M⁻¹ s⁻¹.
